From patent US20180118818A1 come the findings set out here.

Assay [1] addresses green fluorescent protein (GFP) (Aequorea-derived) [GFP: P42212]. As to the kind of experiment: cell-based or functional assay.
Assay [2] deals with DsRed (UniProt Q9U6Y8). As to the kind of experiment: cell-based or functional assay.
Sequence of UniProt Q9U6Y8 (Q9U6Y8 whole entry): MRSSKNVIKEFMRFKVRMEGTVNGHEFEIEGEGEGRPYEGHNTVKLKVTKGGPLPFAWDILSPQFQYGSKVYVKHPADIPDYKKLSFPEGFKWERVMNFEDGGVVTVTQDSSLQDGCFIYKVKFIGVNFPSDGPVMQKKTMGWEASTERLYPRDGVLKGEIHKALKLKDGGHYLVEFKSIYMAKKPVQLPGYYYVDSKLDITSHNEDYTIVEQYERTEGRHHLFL

In turn, “dGBP1x2-Flpo (Flp dependent on GFP, Flp-DOG) (VHH)” gave a fold induction of the Flp-dependent luciferase reporter by GFP, 293T cells in assay [1] of 636 fold.

For “dGBP1-TagBFP (destabilized GBP1 fused to TagBFP) (VHH)”, the % TagBFP+ given GFP+ or DsRed+ cells in ONL (+CAG-DsRed) in assay [2] was found to be 0%. In assay [1], the % Anti-TagBFP+ given GFP+ cells (CAG promoter for GFP, INL) stood at 97%; the % Anti-TagBFP+ given GFP+ cells (CAG promoter for GFP, ONL) stood at 100%; the % Anti-TagBFP+ given GFP+ cells (Rho promoter for GFP, ONL) is 100%; the % GFP+ cells given Anti-TagBFP+ cells (CAG promoter for GFP, INL) turned out to be 99%. In assay [1], the % GFP+ cells given Anti-TagBFP+ cells (CAG promoter for GFP, ONL) worked out at 100%; the % GFP+ cells given Anti-TagBFP+ cells (Rho promoter for GFP, ONL) was 100%; the % TagBFP+ given GFP+ or DsRed+ cells in ONL (+CAG-GFP) came out at 91%.
